B1: iRhom2 wild type (HA-tagged) [human] / V5-tagged FRMD8 [not stated] (parent complex)
chain 1: MASADKNGGSVSSVSSSRLQSRKPPNLSITIPPPEKETQAPGEQDSMLPEGFQNRRLKKSQPRTWAAHTTACPPSFLPKRKNPAYLKSVSLQEPRSRWQESSEKRPGFRRQASLSQSIRKGAAQWFGVSGDWEGQRQQWQRRSLHHCSMRYGRLKASCQRDLELPSQEAPSFQGTESPKPCKMPKIVDPLARGRAFRHPEEMDRPHAPHPPLTPGVLSLTSFTSVRSGYSHLPRRKRMSVAHMSLQAAAALLKGRSVLDATGQRCRVVKRSFAFPSFLEEDVVDGADTFDSSFFSKEEMSSMPDDVFESPPLSASYFRGIPHSASPVSPDGVQIPLKEYGRAPVPGPRRGKRIASKVKHFAFDRKKRHYGLGVVGNWLNRSYRRSISSTVQRQLESFDSHRPYFTYWLTFVHVIITLLVICTYGIAPVGFAQHVTTQLVLRNKGVYESVKYIQQENFWVGPSSIDLIHLGAKFSPCIRKDGQIEQLVLRERDLERDSGCCVQNDHSGCIQTQRKDCSETLATFVKWQDDTGPPMDKSDLGQKRTSGAVCHQDPRTCEEPASSGAHIWPDDITKWPICTEQARSNHTGFLHMDCEIKGRPCCIGTKGSCEITTREYCEFMHGYFHEEATLCSQVHCLDKVCGLLPFLNPEVPDQFYRLWLSLFLHAGVVHCLVSVVFQMTILRDLEKLAGWHRIAIIFILSGITGNLASAIFLPYRAEVGPAGSQFGLLACLFVELFQSWPLLERPWKAFLNLSAIVLFLFICGLLPWIDNIAHIFGFLSGLLLAFAFLPYITFGTSDKYRKRALILVSLLAFAGLFAALVLWLYIYPINWPWIEHLTCFPFTSRFCEKYELDQVLH
chain 2: MDGTEGSAGQPGPAERSHRSSVSSVGARAADVLVYLADDTVVPLAVENLPSLSAHELHRAVREVLQLPDIALDVFALWLVSPLLEVQLKPKHQPYKLGRQWPELLLRFTSAPDDDVAMDEPFLQFRRNVFFPKRRELQIHDEEVLRLLYEEAKGNVLAARYPCDVEDCEALGALVCRVQLGPYQPGRPAACDLREKLDSFLPAHLCKRGQSLFAALRGRGARAGPGEQGLLNAYRQVQEVSSDGGCEAALGTHYRAYLLKCHELPFYGCAFFHGEVDKPAQGFLHRGGRKPVSVAISLEGVHVIDSREKHVLLGLRFQELSWDHTSPEEEEPILWLEFDGDSEGTPVNKLLKIYSKQAELMSSLIEYCIELSQAAEPAGPQDSATGSPSDPSSSLAPVQRPKLRRQGSVVSSRIQHLSTIDYVEDGKGIRRVKPKRTTSFFSRQLSLGQGSYTVVQPGDSLEQG

Variants of: B1
Assay: co-immunoprecipitation (HA-IP) with western blot quantification; iRhom1/2 DKO HEK293T cells co-transfected with V5-tagged FRMD8; three independent experiments; read off a plot

| ratio to parent | Variant |
| --- | --- |
| ~1.05 | chain 1 P233A, chain 1 R234A, chain 1 R235A, chain 1 K236A, chain 1 R237A, chain 1 M238A |
| ~1.1 | chain 1 P233A, chain 1 R234A, chain 1 R235A, chain 1 K236A, chain 1 R237A, chain 1 M238A, chain 1 S239A |
| ~1.2 | chain 1 S239A |
